Article PMC4860835, “ALG-2 activates the MVB sorting function of ALIX through relieving its intramolecular interaction” (Cell Discovery, 2015)

Target: T1, ALIX (endogenous, HEK293 cells) (human (endogenous in HEK293), UniProt Q8WUM4 1-868)
T1 construct: also called cytosolic ALIX; AIP1
T1 sequence (looked up): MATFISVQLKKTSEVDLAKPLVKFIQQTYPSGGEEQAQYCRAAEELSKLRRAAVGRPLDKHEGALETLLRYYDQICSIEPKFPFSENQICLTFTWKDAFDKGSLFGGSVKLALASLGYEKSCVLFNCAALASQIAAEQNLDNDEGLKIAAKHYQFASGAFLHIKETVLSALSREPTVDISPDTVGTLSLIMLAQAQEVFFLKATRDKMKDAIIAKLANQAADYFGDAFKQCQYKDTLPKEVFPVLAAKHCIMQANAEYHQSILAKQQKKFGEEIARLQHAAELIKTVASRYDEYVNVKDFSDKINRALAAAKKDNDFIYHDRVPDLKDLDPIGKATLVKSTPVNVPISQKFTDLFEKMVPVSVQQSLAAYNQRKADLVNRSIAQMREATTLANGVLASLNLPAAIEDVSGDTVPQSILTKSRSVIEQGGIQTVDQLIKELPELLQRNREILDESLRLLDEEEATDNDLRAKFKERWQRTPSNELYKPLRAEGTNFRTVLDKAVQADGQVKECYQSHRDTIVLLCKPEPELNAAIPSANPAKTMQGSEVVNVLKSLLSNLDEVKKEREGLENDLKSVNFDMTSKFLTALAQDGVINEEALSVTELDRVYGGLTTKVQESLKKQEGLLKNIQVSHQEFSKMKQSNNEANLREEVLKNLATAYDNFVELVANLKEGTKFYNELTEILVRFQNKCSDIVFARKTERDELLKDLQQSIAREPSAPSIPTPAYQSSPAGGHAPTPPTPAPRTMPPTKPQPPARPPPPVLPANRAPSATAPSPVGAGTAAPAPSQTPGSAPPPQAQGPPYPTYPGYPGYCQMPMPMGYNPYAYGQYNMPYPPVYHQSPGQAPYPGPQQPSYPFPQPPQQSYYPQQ
Assay: co-IP; 0.1% Triton X-100-solubilized HEK293 cell lysates, 10 μM CaCl2 added; control and EGF-stimulated cells (Supplementary Figure S3A)
Details: partners not purified

B1: ALG-2 (endogenous, HEK293 cells) (natural protein, human (endogenous in HEK293), UniProt O75340 1-191, looked up)
chain: MAAYSYRPGPGAGPGPAAGAALPDQSFLWNVFQRVDKDRSGVISDTELQQALSNGTWTPFNPVTVRSIISMFDRENKAGVNFSEFTGVWKYITDWQNVFRTYDRDNSGMIDKNELKQALSGFGYRLSDQFHDILIRKFDRQGRGQIAFDDFIQGCIVLQRLTDIFRRYDTDQDGWIQVSYEQYLSMVFSIV
notes: also called endogenous ALG-2; apoptosis-linked gene-2 product; source: endogenous, HEK293 membrane and soluble fractions and 0.1% Triton X-100 lysate
Q: For B1, which “fold more ALG-2 interacting with ALIX in EGF-stimulated cells than in control cells” value is on record?
A: Its value is 3.5 fold.
